Data: patent US20160319032A1

What was measured:
[1] = biological target: mouse αVβ6 on cells (mouse) (UniProt P43406); assay: FACS, purified mAb, transfected HEK-293 (parental: 74)
[2] = biological target: mouse αVβ6 on cells (mouse) (UniProt P43406); assay: FACS, K562 cells expressing mouse αVβ6 (parental K562: 33)
[3] = biological target: cynomolgus β6 on transfected HEK-293 cells (cynomolgus); assay: FACS, purified mAb, transfected HEK-293 (parental: 2)

Sequence of mouse αVβ6 on cells (mouse) (P43406 31-1044, chain 1 of 2): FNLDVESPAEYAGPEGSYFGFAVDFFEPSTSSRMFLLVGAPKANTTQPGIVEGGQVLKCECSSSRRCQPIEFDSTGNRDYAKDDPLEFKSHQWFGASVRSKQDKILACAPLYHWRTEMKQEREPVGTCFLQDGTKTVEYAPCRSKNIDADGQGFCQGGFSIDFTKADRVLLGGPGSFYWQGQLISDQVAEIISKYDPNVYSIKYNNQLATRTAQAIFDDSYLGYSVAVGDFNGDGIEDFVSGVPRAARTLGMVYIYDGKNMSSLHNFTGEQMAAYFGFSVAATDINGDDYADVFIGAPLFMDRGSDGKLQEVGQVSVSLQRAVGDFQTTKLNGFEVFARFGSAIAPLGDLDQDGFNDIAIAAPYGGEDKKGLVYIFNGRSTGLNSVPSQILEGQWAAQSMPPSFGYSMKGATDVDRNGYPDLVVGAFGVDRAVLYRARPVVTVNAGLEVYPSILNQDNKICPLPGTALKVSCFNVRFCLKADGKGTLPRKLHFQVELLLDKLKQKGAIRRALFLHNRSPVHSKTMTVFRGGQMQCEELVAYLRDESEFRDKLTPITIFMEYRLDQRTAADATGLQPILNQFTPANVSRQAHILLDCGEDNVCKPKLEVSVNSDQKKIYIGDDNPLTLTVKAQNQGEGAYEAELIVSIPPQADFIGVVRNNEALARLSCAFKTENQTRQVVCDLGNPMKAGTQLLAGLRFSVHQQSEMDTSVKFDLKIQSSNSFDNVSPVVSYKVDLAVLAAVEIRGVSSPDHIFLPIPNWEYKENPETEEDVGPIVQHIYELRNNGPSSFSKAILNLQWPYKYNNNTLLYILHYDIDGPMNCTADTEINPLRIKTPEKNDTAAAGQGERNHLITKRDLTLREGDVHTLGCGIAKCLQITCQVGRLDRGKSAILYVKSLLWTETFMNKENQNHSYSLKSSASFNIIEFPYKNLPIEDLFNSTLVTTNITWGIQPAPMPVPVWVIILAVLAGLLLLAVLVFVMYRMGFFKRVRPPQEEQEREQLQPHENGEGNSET
Sequence of mouse αVβ6 on cells (mouse) (Q9Z0T9 22-787, chain 2 of 2, further chain): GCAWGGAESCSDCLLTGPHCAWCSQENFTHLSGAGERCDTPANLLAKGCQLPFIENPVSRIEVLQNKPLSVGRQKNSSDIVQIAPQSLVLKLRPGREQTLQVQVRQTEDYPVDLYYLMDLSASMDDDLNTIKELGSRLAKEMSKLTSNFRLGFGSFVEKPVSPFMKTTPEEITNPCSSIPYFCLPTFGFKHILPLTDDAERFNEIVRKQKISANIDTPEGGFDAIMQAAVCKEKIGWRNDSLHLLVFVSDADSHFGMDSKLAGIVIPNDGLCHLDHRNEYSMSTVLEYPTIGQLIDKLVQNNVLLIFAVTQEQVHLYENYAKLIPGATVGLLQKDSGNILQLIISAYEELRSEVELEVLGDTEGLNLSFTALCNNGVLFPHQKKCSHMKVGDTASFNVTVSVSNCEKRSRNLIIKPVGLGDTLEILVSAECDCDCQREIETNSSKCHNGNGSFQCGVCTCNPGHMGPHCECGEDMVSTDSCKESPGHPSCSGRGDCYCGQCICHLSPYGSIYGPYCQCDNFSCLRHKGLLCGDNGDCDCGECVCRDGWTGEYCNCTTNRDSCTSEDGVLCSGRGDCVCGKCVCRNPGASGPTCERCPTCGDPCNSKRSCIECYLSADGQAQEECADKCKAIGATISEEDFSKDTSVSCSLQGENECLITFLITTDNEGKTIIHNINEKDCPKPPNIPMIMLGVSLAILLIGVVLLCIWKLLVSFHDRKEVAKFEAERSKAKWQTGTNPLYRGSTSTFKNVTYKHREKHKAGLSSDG

percent of cells shifted [1] | Geometric Mean Shift (arbitrary units) [2] | percent of cells shifted [3] | Binder
63% | 160 |  | sc 264 (antibody, V domains shown) VH: QVQLQESGPGLVKPSQTLSLTCTVSGGSISSGGYYWSWIRQHPGKGLEWIGYIYYSGRTYNNPSLKSRVTISVDTSKNQFSLKLSSVTAADTAVYYCARVATGRGDYHFYAMDVWGQGTTVTVSS VL: SYELTQPSSVSVSPGQTARITCSGDVLAKKSARWFHQKPGQAPVLVIYKDSERPSGIPERFSGSSSGTTVTLTISGAQVEDEAAYYCYSAADNNLVFGGGTKLTVL
 |  | 10% | sc 133 (antibody, V domains shown) VH: QVQLVQSGAEVKKPGASVKVSCKASGYTFTGYYMHWVRQAPGQGLEWMGWINPKSGDTNYAQKFQGRVTLTRDTSTSTAYMELSRLRSDDTAVYYCARRLDVWGQGTTVTVSS VL: QSVLTQPPSVSAAPGQKVTISCSGSSSNIGNNYVSWYQQLPGTAPKLLIYDNNKRPSGIPDRFSGSKSGTSATLGITGLQTGDEADYYCGTWNSSLSAGYVFGTGTKVTV
